Holding throughout (experiment): fluorescence polarisation; 25 °C; unlabeled Rb^P titrated against 1.5 nM TMR-E2F1^TD or 7.5 nM TMR-E7^LxCxE; 25 mM Tris pH 8.0, 200 mM NaCl, 1 mM DTT, 0.1% Tween-20; 2 min incubation; quadratic fit; apparent Kd for the variants, Kd for WT
Holding throughout (conditions): both partners purified

The target in one experiment is T1, Rb^P R741S (human, UniProt P06400 380-788, R741S).
T1 construct: also called variant 70
T1 sequence (looked up): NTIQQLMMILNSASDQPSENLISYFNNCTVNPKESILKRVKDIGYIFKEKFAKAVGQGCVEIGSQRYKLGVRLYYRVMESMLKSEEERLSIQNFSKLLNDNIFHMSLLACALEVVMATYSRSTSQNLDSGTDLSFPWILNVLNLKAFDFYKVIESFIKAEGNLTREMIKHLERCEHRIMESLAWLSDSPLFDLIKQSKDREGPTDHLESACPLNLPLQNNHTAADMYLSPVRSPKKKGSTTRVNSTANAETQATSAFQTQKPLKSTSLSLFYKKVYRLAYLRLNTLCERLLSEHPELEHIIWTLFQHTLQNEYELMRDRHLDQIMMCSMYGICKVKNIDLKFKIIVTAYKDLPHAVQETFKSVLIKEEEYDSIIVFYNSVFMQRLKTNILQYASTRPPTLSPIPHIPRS

The target of a further experiment is T2, Rb^P K462E (human, UniProt P06400 380-788, K462E).
T2 construct: also called variant 8
T2 sequence (looked up): T1 sequence (looked up) with K83E, S362R

In a further experiment the target is T3, Rb^P R621H (human, UniProt P06400 380-788, R621H).
T3 construct: also called variant 42
T3 sequence (looked up): T1 sequence (looked up) with R242H, S362R

A further experiment has as its target T4, Rb^P P595L (human, UniProt P06400 380-788, P595L).
T4 construct: also called variant 35
T4 sequence (looked up): T1 sequence (looked up) with P216L, S362R

The target in a further experiment is T5, Rb^P H555Y (human, UniProt P06400 380-788, H555Y).
T5 construct: also called variant 29
T5 sequence (looked up): T1 sequence (looked up) with H176Y, S362R

Changes are numbered by the printed parent chain. In names and notes the source's numbering stands. No end group written: not given here. TMR = tetramethyl rhodamine dye

B1: TMR-E2F1^TD, peptide of the E2F1 transactivation domain (peptide)
peptide: {TMR}-GEGIRDLFDCDFGDLTPLD
notes: also called E2F^TD; source: synthetic peptide, bought: GenScript
With B1, the Kd with Rb^P R741S was 32 nM; with Rb^P K462E, 27 nM; with Rb^P R621H it was 30 nM; with Rb^P P595L it was 46 nM; in the experiment with Rb^P H555Y it was 158 nM.

B2: TMR-E7^LxCxE, LxCxE peptide of the E7 oncoprotein from HPV (peptide)
peptide: DLYCYEQLN
modifications: also: TMR label, position not given here
notes: source: synthetic peptide, bought: GenScript
Turning to B2, the Kd with Rb^P R741S stood at 16 nM; with Rb^P K462E, 11 nM; with Rb^P R621H, 10 nM; with Rb^P P595L, 14 nM; with Rb^P H555Y, 8 nM.

The values above are taken from PMC11931385, “Structural and functional analysis of cancer-associated missense variants in the retinoblastoma protein pocket domain” (The Journal of Biological Chemistry, 2025).
